Test results: US20250145690A1 (US Dept. of Health and Human Services, published 2025)

How the values were obtained:
Test in all cases: bead flow cytometry, AUC minus CD4
[1] = target: T1, MERS-CoV spike protein (MERS-CoV, UniProt K9N5Q8 18-1291)
T1 sequence: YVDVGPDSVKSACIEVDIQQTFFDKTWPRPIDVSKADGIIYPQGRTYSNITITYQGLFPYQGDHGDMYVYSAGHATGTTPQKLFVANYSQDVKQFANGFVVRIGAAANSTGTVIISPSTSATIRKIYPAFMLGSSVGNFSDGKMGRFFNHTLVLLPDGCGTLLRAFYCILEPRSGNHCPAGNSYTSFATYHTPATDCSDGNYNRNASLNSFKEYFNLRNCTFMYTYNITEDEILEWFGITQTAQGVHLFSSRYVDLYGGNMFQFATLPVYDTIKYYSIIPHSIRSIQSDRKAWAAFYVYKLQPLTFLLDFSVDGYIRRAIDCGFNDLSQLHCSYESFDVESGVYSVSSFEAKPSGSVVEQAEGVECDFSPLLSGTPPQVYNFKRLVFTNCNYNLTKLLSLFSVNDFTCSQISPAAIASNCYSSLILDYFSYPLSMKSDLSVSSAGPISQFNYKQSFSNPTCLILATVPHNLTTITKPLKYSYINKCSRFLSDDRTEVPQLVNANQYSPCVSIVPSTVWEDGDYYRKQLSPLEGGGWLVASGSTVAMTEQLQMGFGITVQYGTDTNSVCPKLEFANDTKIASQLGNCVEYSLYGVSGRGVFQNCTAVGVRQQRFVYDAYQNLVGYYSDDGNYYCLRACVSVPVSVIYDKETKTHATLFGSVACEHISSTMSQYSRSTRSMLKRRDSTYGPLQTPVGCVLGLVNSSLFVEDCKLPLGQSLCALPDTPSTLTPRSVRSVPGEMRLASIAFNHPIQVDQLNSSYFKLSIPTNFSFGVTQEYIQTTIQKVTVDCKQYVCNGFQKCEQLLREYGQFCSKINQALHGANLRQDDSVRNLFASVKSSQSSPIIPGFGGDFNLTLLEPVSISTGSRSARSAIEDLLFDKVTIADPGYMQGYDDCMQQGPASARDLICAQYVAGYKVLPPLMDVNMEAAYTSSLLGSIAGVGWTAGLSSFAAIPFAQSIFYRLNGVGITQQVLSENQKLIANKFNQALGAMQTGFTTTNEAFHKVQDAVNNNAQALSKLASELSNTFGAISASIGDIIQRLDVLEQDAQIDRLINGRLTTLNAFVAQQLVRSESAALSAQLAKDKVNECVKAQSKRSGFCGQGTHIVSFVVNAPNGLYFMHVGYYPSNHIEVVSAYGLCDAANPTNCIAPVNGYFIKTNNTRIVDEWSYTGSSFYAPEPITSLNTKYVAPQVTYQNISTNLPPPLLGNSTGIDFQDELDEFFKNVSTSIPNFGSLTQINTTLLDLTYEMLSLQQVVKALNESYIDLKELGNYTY

[2] = target: T2, SARS-CoV-2 spike S2 subunit, recombinant (SARS-CoV-2, UniProt P0DTC2 686-1213)
T2 construct: domain: S2 subunit

[3] = target: T3, HCoV-HKU1 spike protein (Sino Biological 40606-V08B) (HCoV-HKU1, UniProt Q0ZME7 13-1295)
T3 sequence: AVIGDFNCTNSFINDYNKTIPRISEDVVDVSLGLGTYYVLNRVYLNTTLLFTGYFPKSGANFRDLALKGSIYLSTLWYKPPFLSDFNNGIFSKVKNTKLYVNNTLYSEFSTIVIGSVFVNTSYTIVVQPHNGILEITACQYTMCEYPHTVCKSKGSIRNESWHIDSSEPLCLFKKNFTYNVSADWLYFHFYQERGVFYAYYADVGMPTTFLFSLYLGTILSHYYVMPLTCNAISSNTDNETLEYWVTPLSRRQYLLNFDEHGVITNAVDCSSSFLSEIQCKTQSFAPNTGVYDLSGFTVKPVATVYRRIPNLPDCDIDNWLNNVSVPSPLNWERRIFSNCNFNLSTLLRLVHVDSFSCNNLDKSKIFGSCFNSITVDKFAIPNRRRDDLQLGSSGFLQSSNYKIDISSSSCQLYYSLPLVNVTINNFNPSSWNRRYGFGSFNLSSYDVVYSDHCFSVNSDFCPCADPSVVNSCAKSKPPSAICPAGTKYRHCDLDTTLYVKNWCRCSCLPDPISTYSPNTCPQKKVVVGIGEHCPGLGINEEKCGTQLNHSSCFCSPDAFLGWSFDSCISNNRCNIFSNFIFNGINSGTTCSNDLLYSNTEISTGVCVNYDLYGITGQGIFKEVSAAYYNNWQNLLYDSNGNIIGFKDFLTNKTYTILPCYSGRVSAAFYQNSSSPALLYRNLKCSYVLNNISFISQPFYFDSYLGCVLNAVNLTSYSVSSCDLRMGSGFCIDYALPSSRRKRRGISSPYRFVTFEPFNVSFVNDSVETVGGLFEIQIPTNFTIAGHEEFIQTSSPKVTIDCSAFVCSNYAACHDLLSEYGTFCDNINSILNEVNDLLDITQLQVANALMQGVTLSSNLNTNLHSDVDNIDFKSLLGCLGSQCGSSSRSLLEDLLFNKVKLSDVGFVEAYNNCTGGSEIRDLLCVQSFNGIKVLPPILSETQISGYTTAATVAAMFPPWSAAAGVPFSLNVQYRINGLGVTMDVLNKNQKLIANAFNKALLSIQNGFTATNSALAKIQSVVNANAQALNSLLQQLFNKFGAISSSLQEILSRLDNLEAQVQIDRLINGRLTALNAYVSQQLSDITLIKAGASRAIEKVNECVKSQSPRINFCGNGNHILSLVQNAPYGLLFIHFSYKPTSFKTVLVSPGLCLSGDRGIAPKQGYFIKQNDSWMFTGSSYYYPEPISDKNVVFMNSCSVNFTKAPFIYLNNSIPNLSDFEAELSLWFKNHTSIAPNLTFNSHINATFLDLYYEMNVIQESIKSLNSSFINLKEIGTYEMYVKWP

Row | Binder | binding result [1] | binding result [2] | binding result [3]
1 | COV77-09 (antibody, V domains shown) VH: EVQLVESGGGLVQPGRSLTLSCSGSGFTFGDYSMSWVRQAPGKGLEWLGFIRSQTYGGTTQYAASVQGRFTILRDDSKSIAYLQMNSLKTEDTAVYYCTRNYGVGDYWGQGTLVTVSS VL: DIVMTQSPASLAVSLGERATIHCRSSLSVLNSSNNKNYLAWYQQKAGQPPKLLMYWASTRESGVPERFSGSGSGTDFTLTISSLEAGDVAVYYCQQYYDKLSLTFGGGTKVEIK | no binding (tested: 200 µg/mL) | – | –
2 | COV57-38 (antibody, V domains shown) VH: QVQLVESGGGVVQPGRSLRLSCEASGFNFNNYGMHWVRQAPGKGLEWVAVISYEGSKKYYEDSVRGRFTISRDFSKNTLYLQMNSLRAEDTAVYYCAKANEIFWLGQFKNDALDFWGQGTMVTVSS VL: QSVLTQPPSASGTPGQRVAVSCSGSSSNIGTNFVNWYQHLPRTAPKLLIYRDNQRPSGVPDRFSGSKSGTSASLAISGLQSEDEADYYCAVWDDSLNGQVFGGGTKVTVL | no binding (tested: 200 µg/mL) | – | –
3 | COV49-54 (antibody, V domains shown) VH: EVQLVESGGGLVQPGGSLRLSCAASGFIVSSNYMSWVRQAPGKGLEWVSMIYSGGSTVYADSVKGRFTISRDISKNTLYLQMNSLRAEDTAVYYCALETFDYWGQGTLVTVSS VL: DIQMTQSPSSLSASVGDRVTITCRASQGITNHLAWYQQKPGKVPKLLIYAASTLQSGVPSRFSGSGYGTDFTLTISSLQPEDVASYYCQKYDSAPRTFGQGTKVEIK | no binding (tested: 200 µg/mL) | no binding (tested: 200 µg/mL) | –
4 | COV44-37 (antibody, V domains shown) VH: QVQLVQSGAEVKKPGASVMLSCRASGYTFINDYMHWVRQAPGEGFEWMGIINPTGDGTKFAQKFQGRVTMTRDSSTTTVHMELRSLTSGDTAVYFCATGGRQSAFDIWGQGTVVIVSS VL: DIVMTQSPLSLPVTPGESASISCRSSQSLLQNNGYNYLDWYLQKPGQSPQLLIYLGSYRASGVPDRFSGSGSGTDFTLKISRVEAEDVGVYYCVQAQQAPPLYTFGQGTKLQIK | – | – | no binding (tested: 200 µg/mL)
5 | COV44-74 (antibody, V domains shown) VH: QVQLVQSGAEVKKPGASVKVSCKASGYTFSSYYMNWVRQAPGQGLEWVGLISPSAGYTAYAQMFQGRVTMTRDTSTSTVYMELSSLRSEDTAVYYCARVAVAGPNDYWGQGTLVTVSS VL: EIVLTQSPGTLSLSPGERATLSCRASQSISSSYLAWYQQKPGQAPRLVILAASTRATGIPDRFSGSGSGTDFTLTISRLEPEDFALYYCQHYRSSPPLWTFGQGTKVEIR | – | – | no binding (tested: 200 µg/mL)
6 | COV57-34 (antibody, V domains shown) VH: QVQLVQSGTEVKKPGSSVKVSCRASGGTLSSYSVSWVRQAPGQGLEWMGRIIPILDKKTYAQKYQGRVTIIADTSTSTVYMELSSLKSDDSAVYYCTTFDYDTSGQRDQHDYWGQGTPVTVSS VL: not shown | no binding (tested: 200 µg/mL) | – | –
7 | COV57-13 (antibody, V domains shown) VH: QVQLVQSGTEVKKPGSSVKVSCRASGGTLSSYSVSWVRQAPGQGLEWMGRIIPILDKKTYAQKYQGRVTIIADTSTSTVYMELSSLKSEDSAVYYCTTFDYDTSGQRDQHDYWGQGTLVTVSS VL: not shown | no binding (tested: 200 µg/mL) | – | –
